# According to US20210324080A1 (JIANGSU HUAIYU PHARMACEUTICAL, published 2021):
# T1: recombinant His-labeled hCTLA-4 ECD protein (human, UniProt P16410 36-161)
# T1 construct: extracellular domain; also called human CTLA-4 ECD; not shown: His label
# T1 sequence (looked up): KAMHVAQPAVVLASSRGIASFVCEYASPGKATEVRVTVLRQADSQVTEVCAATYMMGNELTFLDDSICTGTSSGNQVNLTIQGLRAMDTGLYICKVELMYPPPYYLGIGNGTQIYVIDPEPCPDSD
# T2: human CTLA-4 (Y201V), full length, on transfected cells (human, UniProt P16410 36-223)
# T2 construct: whole, on cells; also called hCTLA-4; HEK293-hCTLA-4 (Y201V)
# T2 sequence (looked up): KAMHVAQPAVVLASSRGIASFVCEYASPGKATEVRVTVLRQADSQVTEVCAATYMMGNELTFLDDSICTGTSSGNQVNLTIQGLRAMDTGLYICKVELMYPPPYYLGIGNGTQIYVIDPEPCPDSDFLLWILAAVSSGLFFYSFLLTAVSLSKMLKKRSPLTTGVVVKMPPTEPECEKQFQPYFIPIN
# T3: CTLA-4-hFc (immunogen A; hFc-labeled CTLA-4 extracellular domain protein) (human, UniProt P16410 36-161)
# T3 construct: range 36-161; Made in HEK293 cells, purified on protein A; also called CLTA-4-hFc; CTLA-4 protein; not shown: human IgG Fc fragment (hFc) of the pCpC vector
# T3 sequence (looked up): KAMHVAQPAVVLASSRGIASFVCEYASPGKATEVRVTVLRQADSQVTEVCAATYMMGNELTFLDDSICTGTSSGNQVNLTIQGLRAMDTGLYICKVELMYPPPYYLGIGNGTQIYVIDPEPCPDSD
# T4: CTLA-4 on human T lymphocytes (PBMC, CD3+ T cells) (human, UniProt P16410 36-223)
# T4 sequence (looked up): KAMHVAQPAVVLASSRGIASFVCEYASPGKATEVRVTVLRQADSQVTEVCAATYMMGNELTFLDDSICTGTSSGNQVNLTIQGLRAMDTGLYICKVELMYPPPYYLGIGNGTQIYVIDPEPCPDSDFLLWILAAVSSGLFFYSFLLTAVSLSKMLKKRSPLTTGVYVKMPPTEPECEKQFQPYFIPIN
# How the values were obtained:
# [1] = molecular target: T5, monkey CTLA-4, full length, on transfected HEK293 cells (monkey); test: FACS, monkey CTLA-4 expressing cells
# T5 construct: whole, on cells; also called cCTLA-4; HEK293-cCTLA-4
# Description: The pIRES plasmid with the monkey-derived CTLA-4 full-length gene was transfected into the HEK293 cell line to construct a HEK293 stable cell line containing monkey CTLA-4 (herein referred to as HEK293-cCTLA-4 stable cell line), wherein the database accession number of the monkey CTLA-4 nucleotide sequence is XM_005574014.1. The HEK293-hCTLA-4 stable cell line and HEK293-cCTLA-4 stable cell line were expanded in a T-75 cell culture flask to a 90% confluence. The medium was aspirated, and the cells were washed with HBSS buffer (Hanks Balanced Salt Solution, purchased from Invitrogen) twice, then treated with an enzyme-free cell dissociation fluid (Versene solution, purchased from Life technology) and the cells were collected. The cells were washed with HBSS buffer twice. After counted, the cells were diluted with HBSS buffer to 2×10⁶ cells per ml, added with 1% goat serum blocking solution, wherein the percentage was the mass percantage. Cells were incubated on ice for 30 minutes, then washed twice with HBSS buffer by centrifugation. The collected cells were suspended in the FACS buffer (HBSS containing 1% BSA, wherein the percentage was the mass percantage) to 2×10⁶ cells/ml, added as 100 microliters per well to a 96-well FACS reaction plate, added with 100 microliters per well of the purified CTLA-4 antibody sample to be tested, incubated on ice for 2 hours. The plate was washed twice with the FACS buffer by centrifugation, added with 100 microliters of fluorescent (Alexa 488)-labeled secondary antibodies (purchased from Invitrogen) per well, and incubated on ice for 1 hour. The plate was washed 3 times with FACS buffer by centrifugation, added with 100 μl fixative solution [4% (v/v) Paraformaldehyde] per well to suspend the cells. 10 minutes later, it was washed 2 times with FACS buffer by centrifugation. The cells were suspended with 100 microliters of FACS buffer, FACS (FACS Calibur, purchased from BD) was used for detection and the results were analyzed.
# [2] = molecular target: T1, recombinant His-labeled hCTLA-4 ECD …; test: SPR Biacore T200, antibody captured by anti-human Fc, 1:1 model
# Protocol: Anti-human Fc IgG was fixed on flow cell 1 and 2. HBS-EP+ (10 mmol/L HEPES, 150 mmol/L NaCl, 3 mM EDTA, 0.05% P20, pH 7.4) was used as the running buffer, and anti-human Fc IgG was fixed using the fixing wizard template. The flow cells 1 and 2 connected in series with S CM5 sensor chip were activated with freshly mixed 50 mmol/L NHS and 200 mmol/L EDC. Anti-human Fc IgG was diluted to […] with 10 mmol/L NaAC (pH 4.5) and injected into activated flow cells 1 and 2. The remaining active coupling sites were blocked with 1 mol/L ethanolamine.
# The recombinant His-labeled hCTLA-4 ECD protein was diluted to 50 nmol/L, and then serially diluted 4 times with HBS-EP+ buffer at a 2-fold ratio. […] Each antibody was injected into the CM5 sensor flow cell 2 at a flow rate of 10 μL/min to achieve a response of 230 RU. Then the prepared His-labeled hCTLA-4ECD protein was injected into flow cells 1 and 2 at a flow rate of 30 μL/min for 180 seconds. The buffer flow was maintained for 400 seconds for dissociation measurement (30 μL/min). To remove the tested antibody from the surface, 10 mmol/L glycine-HCl pH1.5 was injected for 20 seconds (30 μL/min). Flow cell 1 was used as a reference flow cell. The above steps were repeated for each concentration of serially diluted His-labeled CTLA-4ECD protein. The KD value of each antibody was evaluated using Biacore T200 evaluation software 1.0, and a 1:1 binding model was used to fit the data.
# [3] = molecular target: T2, human CTLA-4 (Y201V), full length, on …; test: FACS, human CTLA-4 expressing cells
# [4] = molecular target: T3, CTLA-4-hFc (immunogen A; hFc-labeled …); test: blocking assay, CTLA-4 protein, competitor B7.2
# Protocol: CTLA-4 extracellular domain protein (CTLA-4-hFc) was diluted with PBS to a final concentration of 1.0 μg/mL, and then added to a 96-well ELISA plate as 100 μl per well. The plate was covered with a plastic film and incubated overnight at 4° C. The plate was washed twice with plate washing solution [PBS containing 0.01% (v/v) Tween 20] on the next day, and added with blocking solution [PBS containing 0.01% (v/v) Tween 20 and 1% (w/w) BSA] and blocked at room temperature for 2 hours. […] After 2 hours, the plate was washed 3 times with a plate washing solution [PBS containing 0.01% (v/v) Tween 20]. HRP (horseradish peroxidase) labeled avidin diluent (purchased from Sigma) was added 100 microliters per well, and after the plate was incubated for 2 hours at 37° C., it was washed with plate washing solution [PBS containing 0.01% (v/v) Tween 20] for 3 times. […] TMB substrate was added to each well. After incubated at room temperature for 30 minutes, the plate was added with […] stop solution (1.0N HCl) to each well. An ELISA plate reader (SpectraMax 384plus, Molecular Device) was used to read the A450 nm value.
# [5] = molecular target: T4, CTLA-4 on human T lymphocytes (PBMC, …); test: cell-based or functional assay
binder,measurement,setting,value
"97B8E1 fully human CTLA-4 antibody (human IgG1, kappa) (antibody, V domains shown, also called mAb50; mAb050) VH: QVQLVESGGGVVQPGRSLRLSCAASGFTFSSYVMHWVRQAPGKGLEWVAVIWSDGRNKYYTDSVKGRFTISRDNSKNTLYLQMSSLRAEDTAVYYCARSGIALAGNAFDIWGQGTMVTVSS VL: not shown",MFI at 0.000128 nM,[1],2
same,MFI at 0.0128 nM,[1],36
same,MFI at 0.064 nM,[1],97
same,MFI at 0.32 nM,[1],270
same,MFI at 1.6 nM,[1],504
same,MFI at 8 nM,[1],757
same,MFI at 40 nM,[1],810
same,MFI at 200 nM,[1],784
same,Kd,[2],3.5 nM
same,koff,[2],0.00151 s⁻¹
same,kon,[2],431000 M⁻¹ s⁻¹
same,MFI at 0.000128 nM,[3],3
same,MFI at 0.0128 nM,[3],31
same,MFI at 0.064 nM,[3],85
same,MFI at 0.32 nM,[3],229
same,MFI at 1.6 nM,[3],491
same,MFI at 8 nM,[3],727
same,MFI at 40 nM,[3],902
same,MFI at 200 nM,[3],886
same,% Block at 0.000128 nM,[4],0%
same,% Block at 0.0128 nM,[4],26.3%
same,% Block at 0.064 nM,[4],42.8%
same,% Block at 0.32 nM,[4],82.3%
same,% Block at 1.6 nM,[4],98.7%
same,% Block at 8 nM,[4],99%
same,% Block at 40 nM,[4],99%
same,% Block at 200 nM,[4],99.1%
same,"IL-2 secretion, pg/ml, at 0.13 ug/ml, N = 1",[5],1570 pg/mL
same,"IL-2 secretion, pg/ml, at 0.13 ug/ml, N = 2",[5],1450 pg/mL
same,"IL-2 secretion, pg/ml, at 0.37 ug/ml, N = 1",[5],2480 pg/mL
same,"IL-2 secretion, pg/ml, at 0.37 ug/ml, N = 2",[5],1860 pg/mL
same,"IL-2 secretion, pg/ml, at 1.1 ug/ml, N = 1",[5],3460 pg/mL
same,"IL-2 secretion, pg/ml, at 1.1 ug/ml, N = 2",[5],2560 pg/mL
same,"IL-2 secretion, pg/ml, at 3.3 ug/ml, N = 1",[5],4240 pg/mL
same,"IL-2 secretion, pg/ml, at 3.3 ug/ml, N = 2",[5],4200 pg/mL
same,"IL-2 secretion, pg/ml, at 10 ug/ml, N = 1",[5],6650 pg/mL
same,"IL-2 secretion, pg/ml, at 10 ug/ml, N = 2",[5],5210 pg/mL
same,"IL-2 secretion, pg/ml, at 30 ug/ml, N = 1",[5],7650 pg/mL
same,"IL-2 secretion, pg/ml, at 30 ug/ml, N = 2",[5],8210 pg/mL
